Results published in paper PMC12559223, “Structural basis of apoptosis induction by the mitochondrial voltage-dependent anion channel” (Nature Communications, 2025).
Positions of bridges follow the written chain, without caps; N, C: chain ends. Non-standard residues stand in square brackets, D forms with d. Residues, ends and D or L forms follow the SMILES beside them. S5 = C=CCCC[C@](C)(N)C(=O)O

B1: VDAC1-N peptide (residues 1–26) (peptide, UniProt P21796 1-26, looked up)
peptide: MAVPPTYADLGKSARDVFTKGYGFGL
notes: VDAC1, human, N-terminal residues 1-26; Isotope-labelled (13C and 15N) for NMR; The same stretch 1-26 stands fused to the C-terminus of BclxLΔLT in m8; the row of the crystal structure uses m6 for that stretch; also called VDAC1-N (1–26); 15N-labeled VDAC1-N; source: E. coli, as His6-GB1-TEV fusion, Ni-NTA, TEV digestion, reverse Ni-NTA; not shown: His6, N-terminal, cleaved; GB1, N-terminal, …

Columns and labels:
[1] = target: human BclxLΔTM (soluble domain of BclxL, transmembrane helix deleted) (human) (UniProt Q07817)
Bak-BclxL complex = experiment: Liposome permeabilization (pore-forming) assay, cBid-activated Bak inhibited by BclxL; format: biochemical, human; details: increasing concentrations of peptide (10-100 µM); 50 nM BakΔTM, 40 nM cBid, 50 nM BclxLΔTM
BclxLΔLT = target: T1, BclxLΔLT (Homo sapiens, UniProt Q07817, DEL45-84); experiment: NMR-detected affinity measurement, alanine scanning of VDAC1-N peptides; format: binding; details: NMR CSP titration into 100 µM 2H,15N BclxLΔLT, 20 mM NaPi pH 7.0, 50 mM NaCl; one-site model; mean of individual NMR resonances as probes (n = 3)
T1 construct: BclxLΔLT (residues 1–44 and 85–213); inferred from Ni-NTA purification; made in house; host or cells: E. coli BL21 (DE3)
T1 sequence (Q07817 with tags, fused parts or gaps DEL45-84 limits assumed): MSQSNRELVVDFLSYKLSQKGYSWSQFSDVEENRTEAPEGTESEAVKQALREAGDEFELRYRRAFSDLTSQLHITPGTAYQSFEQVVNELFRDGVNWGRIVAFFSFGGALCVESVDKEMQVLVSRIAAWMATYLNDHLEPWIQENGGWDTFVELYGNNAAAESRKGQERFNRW
Excerpt: The resulting chemical shift perturbation was plotted against the peptide concentration to extract KD values for each peptide using a one-site binding model using OriginPro (OriginLab) for data fitting.

[2] = target: human BclxLΔLT (BclxL without the flexible loop and the transmembrane helix) (human) (UniProt Q07817); experiment: ITC; MicroCal PEAQ-ITC, 20 °C; BclxLΔLT in the cell (250 µM for the linear, 50 µM for the stapled peptide), peptide in the syringe (500 µM stapled); 10 mM NaPi pH 7.0, 50 mM NaCl, 0.5 mM EDTA, 1 mM DTT
[3] = target: T2, human BclxLΔLT (BclxL without the flexible loop and the transmembrane helix) (human, UniProt Q07817-1 1-212, flexible loop (residues 44–84) deleted); experiment: crystal structure; single-chain BclxLΔLT-VDAC1-N construct, crystal from 1.6 M ammonium sulfate, 0.1 M bicine pH 9.0, 292 K; 1.95 Å; details: both partners purified
T2 construct: BclxL, human, residues 1-43 and 85-212 (flexible loop 44-84 and transmembrane helix deleted); the NMR methods say 1-44 and 85-213; Isotope-labelled for NMR; In the crystal it stood fused to VDAC1-N(1-26) on one chain; source: E. coli BL21 (DE3), purified (Ni-NTA, SEC)

[4] = target: T3, human BclxLΔTM (soluble domain of BclxL, transmembrane helix deleted) (human, UniProt Q07817-1 1-212); experiment: NMR titration; 100 µM 15N-labelled VDAC1-N peptide with a 5-fold excess of unlabelled BclxLΔTM; 20 mM NaPi pH 7.0, 50 mM NaCl, 303 K, 500 MHz; details: both partners purified
T3 construct: BclxL, human, soluble domain without the transmembrane helix, residues 1-212 (the NMR methods say 1-213); 2H,15N-labelled where it was the observed species in NMR; source: E. coli BL21 (DE3), purified (Ni-NTA, SEC)

[5] = target: T4, human BclxLΔLT (BclxL without the flexible loop and the transmembrane helix), Q07817-1; experiment: NMR-detected affinity measurements (alanine scanning); details: chain shown with the change;; parent: est. 0.2 mM; read off a plot
T4 chain: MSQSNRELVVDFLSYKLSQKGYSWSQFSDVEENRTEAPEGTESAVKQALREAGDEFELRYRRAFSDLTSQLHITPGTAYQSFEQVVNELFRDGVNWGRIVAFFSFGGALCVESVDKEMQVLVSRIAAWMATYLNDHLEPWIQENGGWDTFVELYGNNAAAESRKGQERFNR

[6] = target: human BclxLΔTM (soluble domain of BclxL, transmembrane helix deleted) (human) (UniProt Q07817); remark: listed apart in the source
[7] = target: human BclxLΔLT (BclxL without the flexible loop and the transmembrane helix) (human, UniProt Q07817-1 1-212, flexible loop (residues 44–84) deleted); experiment: NMR
[8] = target: human BclxLΔLT (BclxL without the flexible loop and the transmembrane helix) (human) (UniProt Q07817); experiment: NMR titration; alanine scan: VDAC1-N peptides titrated into 100 µM 2H,15N-BclxLΔLT; 20 mM NaPi pH 7.0, 50 mM NaCl, 0.5 mM EDTA, 5 mM DTT; KD from chemical shift perturbations, one-site binding model

Row | Molecule | Kd (BclxLΔLT) | Kd [5] | also measured
1 | wild-type VDAC1-N peptide of the alanine scanning set | – | – | rescue of cBid-activated Bak pore formation inhibited by BclxL (liposome permeabilization), 100 µM peptide [1]: 80%
2 | CC(C)C[C@H](NC(=O)[C@H](CC(=O)O)NC(=O)[C@H](C)NC(=O)[C@@H](N)Cc1ccc(O)cc1)C(=O)N[C@@]1(C)CCCC=CCCC[C@@](C)(C(=O)N[C@@H](CC(=O)O)C(=O)N[C@H](C(=O)N[C@@H](Cc2ccccc2)C(=O)N[C@H](C(=O)N[C@@H](CCCCN)C(=O)NCC(=O)O)[C@@H](C)O)C(C)C)NC(=O)[C@H](C)NC(=O)[C@H](CO)NC(=O)[C@H](CCCCN)NC1=O [stVDAC1-N] (H-YADL[S5]KSA[S5]DVFTKG-OH; staple 5-9; N-terminus and C-terminus assumed) | – | – | effect on pore-forming activity of BclxL-inhibited Bak (in words) (Bak-BclxL complex): concentration-dependent rescue of the pore-forming activity of Bak
3 | CC(C)C[C@H](NC(=O)[C@H](CC(=O)O)NC(=O)[C@H](C)NC(=O)[C@@H](N)Cc1ccc(O)cc1)C(=O)NCC(=O)N[C@@H](CCCCN)C(=O)N[C@@H](CO)C(=O)N[C@@H](C)C(=O)N[C@@H](CCCNC(=N)N)C(=O)N[C@@H](CC(=O)O)C(=O)N[C@@H](C)C(=O)N[C@@H](Cc1ccccc1)C(=O)N[C@H](C(=O)N[C@@H](CCCCN)C(=O)NCC(=O)O)[C@@H](C)O [V17A] (H-YADLGKSARDAFTKG-OH) | 713 µM | – | –
4 | CC(C)C[C@H](NC(=O)[C@H](C)NC(=O)[C@H](C)NC(=O)[C@@H](N)Cc1ccc(O)cc1)C(=O)NCC(=O)N[C@@H](CCCCN)C(=O)N[C@@H](CO)C(=O)N[C@@H](C)C(=O)N[C@@H](CCCNC(=N)N)C(=O)N[C@@H](CC(=O)O)C(=O)N[C@H](C(=O)N[C@@H](Cc1ccccc1)C(=O)N[C@H](C(=O)N[C@@H](CCCCN)C(=O)NCC(=O)O)[C@@H](C)O)C(C)C [D9A] (H-YAALGKSARDVFTKG-OH) | 1070 µM | – | –
5 | CC(C)C[C@H](NC(=O)[C@H](CC(=O)O)NC(=O)[C@H](C)NC(=O)[C@@H](N)Cc1ccc(O)cc1)C(=O)NCC(=O)N[C@@H](CCCCN)C(=O)N[C@@H](CO)C(=O)N[C@@H](C)C(=O)N[C@@H](CCCNC(=N)N)C(=O)N[C@@H](CC(=O)O)C(=O)N[C@H](C(=O)N[C@@H](Cc1ccccc1)C(=O)N[C@H](C(=O)N[C@@H](CCCCN)C(=O)NCC(=O)O)[C@@H](C)O)C(C)C [VDAC1 wt] | 165 µM | – | –
6 | CC(C)[C@H](NC(=O)[C@H](CC(=O)O)NC(=O)[C@H](CCCNC(=N)N)NC(=O)[C@H](C)NC(=O)[C@H](CO)NC(=O)[C@H](CCCCN)NC(=O)CNC(=O)[C@H](C)NC(=O)[C@H](CC(=O)O)NC(=O)[C@H](C)NC(=O)[C@@H](N)Cc1ccc(O)cc1)C(=O)N[C@@H](Cc1ccccc1)C(=O)N[C@H](C(=O)N[C@@H](CCCCN)C(=O)NCC(=O)O)[C@@H](C)O [L10A] (H-YADAGKSARDVFTKG-OH) | 4030 µM | – | –
7 | hydrocarbon-stapled VDAC1 peptide encompassing residues 7–21 (stVDAC1-N) (from UniProt P21796 7-21) | – | – | Kd [2]: 2 µM
8 | CC(C)C[C@H](NC(=O)[C@H](CC(=O)O)NC(=O)[C@H](C)NC(=O)[C@@H](N)Cc1ccc(O)cc1)C(=O)N[C@@H](C)C(=O)N[C@@H](CCCCN)C(=O)N[C@@H](CO)C(=O)N[C@@H](C)C(=O)N[C@@H](CCCNC(=N)N)C(=O)N[C@@H](CC(=O)O)C(=O)N[C@H](C(=O)N[C@@H](Cc1ccccc1)C(=O)N[C@H](C(=O)N[C@@H](CCCCN)C(=O)NCC(=O)O)[C@@H](C)O)C(C)C [G11A] (H-YADLAKSARDVFTKG-OH) | 609 µM | – | –
9 | CC(C)C[C@H](NC(=O)[C@H](CC(=O)O)NC(=O)[C@H](C)NC(=O)[C@@H](N)Cc1ccc(O)cc1)C(=O)NCC(=O)N[C@@H](CCCCN)C(=O)N[C@@H](C)C(=O)N[C@@H](C)C(=O)N[C@@H](CCCNC(=N)N)C(=O)N[C@@H](CC(=O)O)C(=O)N[C@H](C(=O)N[C@@H](Cc1ccccc1)C(=O)N[C@H](C(=O)N[C@@H](CCCCN)C(=O)NCC(=O)O)[C@@H](C)O)C(C)C [S13A] (H-YADLGKAARDVFTKG-OH) | 408 µM | – | –
10 | CC(C)C[C@H](NC(=O)[C@H](CC(=O)O)NC(=O)[C@H](C)NC(=O)[C@@H](N)Cc1ccc(O)cc1)C(=O)NCC(=O)N[C@@H](CCCCN)C(=O)N[C@@H](CO)C(=O)N[C@@H](C)C(=O)N[C@@H](CCCNC(=N)N)C(=O)N[C@@H](CC(=O)O)C(=O)N[C@H](C(=O)N[C@@H](Cc1ccccc1)C(=O)N[C@@H](C)C(=O)N[C@@H](CCCCN)C(=O)NCC(=O)O)C(C)C [T19A] (H-YADLGKSARDVFAKG-OH) | 201 µM | – | –
11 | CC(C)C[C@H](NC(=O)[C@H](CC(=O)O)NC(=O)[C@H](C)NC(=O)[C@H](C)N)C(=O)NCC(=O)N[C@@H](CCCCN)C(=O)N[C@@H](CO)C(=O)N[C@@H](C)C(=O)N[C@@H](CCCNC(=N)N)C(=O)N[C@@H](CC(=O)O)C(=O)N[C@H](C(=O)N[C@@H](Cc1ccccc1)C(=O)N[C@H](C(=O)N[C@@H](CCCCN)C(=O)NCC(=O)O)[C@@H](C)O)C(C)C [Y7A] (H-AADLGKSARDVFTKG-OH) | 446 µM | – | –
12 | CC(C)C[C@H](NC(=O)[C@H](CC(=O)O)NC(=O)[C@H](C)NC(=O)[C@@H](N)Cc1ccc(O)cc1)C(=O)NCC(=O)N[C@@H](CCCCN)C(=O)N[C@@H](CO)C(=O)N[C@@H](C)C(=O)N[C@@H](CCCNC(=N)N)C(=O)N[C@@H](CC(=O)O)C(=O)N[C@H](C(=O)N[C@@H](C)C(=O)N[C@H](C(=O)N[C@@H](CCCCN)C(=O)NCC(=O)O)[C@@H](C)O)C(C)C [F18A] (H-YADLGKSARDVATKG-OH) | 367 µM | – | –
13 | CC(C)C[C@H](NC(=O)[C@H](CC(=O)O)NC(=O)[C@H](C)NC(=O)[C@@H](N)Cc1ccc(O)cc1)C(=O)NCC(=O)N[C@@H](CCCCN)C(=O)N[C@@H](CO)C(=O)N[C@@H](C)C(=O)N[C@@H](CCCNC(=N)N)C(=O)N[C@@H](C)C(=O)N[C@H](C(=O)N[C@@H](Cc1ccccc1)C(=O)N[C@H](C(=O)N[C@@H](CCCCN)C(=O)NCC(=O)O)[C@@H](C)O)C(C)C [D16A] (H-YADLGKSARAVFTKG-OH) | 1260 µM | – | –
14 | B1 | – | – | binding result [3]: binds; binding result [4]: binds
15 | MAVPPTYADLGKSARDVATKGYGF [wild-type VDAC1-N peptide of the alanine scanning set F18A] | – | 300 µM | –
16 | MAVPPTYADLAKSARDVFTKGYGF [wild-type VDAC1-N peptide of the alanine scanning set G11A] | – | 500 µM | –
17 | MAVPPTYADLGKSARDVFAKGYGF [wild-type VDAC1-N peptide of the alanine scanning set T19A] | – | 200 µM | –
18 | MAVPPTAADLGKSARDVFTKGYGF [wild-type VDAC1-N peptide of the alanine scanning set Y7A] | – | 400 µM | –
19 | MAVPPTYADLGKSARDAFTKGYGF [wild-type VDAC1-N peptide of the alanine scanning set V17A] | – | 600 µM | –
20 | NLWAAQRYGRELRRMSDEFEGSFKGL [Bad-BH3 peptide (residues 140–165)] | – | – | recovery of cBid-activated Bak pore formation inhibited by BclxL (liposome permeabilization); Bad-BH3 1 to 100 nM [6]: 50 nM
21 | MAVPPTYADLGKSARAVFTKGYGF [wild-type VDAC1-N peptide of the alanine scanning set D16A] | – | 1200 µM | –
22 | MAVPPTYAALGKSARDVFTKGYGF [wild-type VDAC1-N peptide of the alanine scanning set D9A] | – | 1000 µM | –
23 | MAVPPTYADLGKAARDVFTKGYGF [wild-type VDAC1-N peptide of the alanine scanning set S13A] | – | 400 µM | –
24 | MAVPPTYADAGKSARDVFTKGYGF [VDAC1-N L10A peptide] | – | 4000 µM | Kd [7]: ~9000 µM; fold reduction in affinity against wild-type VDAC1-N [8]: 20 fold
